Assay results: US20140106371A1 (DUBLIN CITY UNIVERSITY, published 2014)
Substitutions are numbered along the chain they refer to. Names and notes keep the numbering of the source.

B1: H50E (rPA-ILNm protein) (other)
chain: RGSHHHHHHGSMAWKGEVLANNEAGQVTSIIYNPGDVITIVAAGWASYGPTQKWGPQGDREEPDQGLICHDAFCGALVMKIGNSGTIPVNTGLFRWVAPNNVQGAITLIYNDVPGTYGNNSGSFSVNIGKDQS
B2: H50T (rPA-ILNm protein) (other)
chain: B1 chain with E62T
B3: H50Q (rPA-ILNm protein) (other)
chain: B1 chain with E62Q
B4: H50V (rPA-ILNm protein) (other)
chain: B1 chain with E62V
B5: H50L (rPA-ILNm protein) (other)
chain: B1 chain with E62L
B6: H50K (rPA-ILNm protein) (other)
chain: B1 chain with E62K
B7: H50P (rPA-ILNm protein) (other)
chain: B1 chain with E62P
B8: H50A (rPA-ILNm protein) (other)
chain: AWKGEVLANNEAGQVTSIIYNPGDVITIVAAGWASYGPTQKWGPQGDREAPDQGLICHDAFCGALVMKIGNSGTIPVNTGLFRWVAPNNVQGAITLIYNDVPGTYGNNSGSFSVNIGKDQS
notes: not shown: N-terminal RGS-6HIS tag and added vector residues (pQE30)
B9: H50R (rPA-ILNm protein) (other)
chain: B8 chain with A50R
notes: as for B8
B10: H50F (rPA-ILNm protein) (other)
chain: B8 chain with A50F
notes: as for B8
B11: H50S (rPA-ILNm protein) (other)
chain: B8 chain with A50S
notes: as for B8

Target: T1, asialotransferrin (human, UniProt P02787 20-698, N-linked glycans desialylated with neuraminidase (Clostridium perfingens), exposing terminal LacNAc (β1,4-linked galactose); partially desialylated by paragraph 70)
T1 construct: Same polypeptide as transferrin; differs only in glycans; also called AsT
T1 sequence (P02787 20-698 limits assumed): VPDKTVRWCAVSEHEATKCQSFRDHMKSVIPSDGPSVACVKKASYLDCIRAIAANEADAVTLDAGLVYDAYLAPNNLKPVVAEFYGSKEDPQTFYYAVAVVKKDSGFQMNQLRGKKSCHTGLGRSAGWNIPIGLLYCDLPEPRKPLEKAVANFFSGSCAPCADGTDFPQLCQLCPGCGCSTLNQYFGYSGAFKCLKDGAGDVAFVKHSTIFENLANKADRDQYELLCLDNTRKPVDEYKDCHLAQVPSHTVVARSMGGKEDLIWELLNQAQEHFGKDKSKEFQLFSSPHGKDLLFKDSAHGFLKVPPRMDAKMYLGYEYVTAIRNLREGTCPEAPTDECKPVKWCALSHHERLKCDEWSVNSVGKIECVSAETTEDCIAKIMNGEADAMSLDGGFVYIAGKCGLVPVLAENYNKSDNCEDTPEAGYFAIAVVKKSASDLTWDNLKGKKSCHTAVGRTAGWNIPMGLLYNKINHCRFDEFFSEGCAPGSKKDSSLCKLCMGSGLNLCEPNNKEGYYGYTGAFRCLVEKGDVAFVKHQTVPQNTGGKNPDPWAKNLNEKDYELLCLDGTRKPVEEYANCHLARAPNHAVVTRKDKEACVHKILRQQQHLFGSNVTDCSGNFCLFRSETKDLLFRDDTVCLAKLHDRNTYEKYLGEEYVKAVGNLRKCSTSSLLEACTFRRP
Test: qualitative ELLA

Row | Binder | binding result
1 | B1 | no binding (tested: 2 µg mL^-1)
2 | B2 | no binding (tested: 2 µg mL^-1)
3 | B3 | no binding (tested: 2 µg mL^-1)
4 | B4 | no binding (tested: 2 µg mL^-1)
5 | B5 | no binding (tested: 2 µg mL^-1)
6 | B6 | no binding (tested: 2 µg mL^-1)
7 | B7 | no binding (tested: 2 µg mL^-1)
8 | B8 | no binding (tested: 2 µg mL^-1)
9 | B9 | no binding (tested: 2 µg mL^-1)
10 | B10 | no binding (tested: 2 µg mL^-1)
11 | B11 | no binding (tested: 2 µg mL^-1)
